This note sets out measurements from the Human Domainome abundance scans (Beltran et al. 2025).

± gives the uncertainty stated by the source.

B1: Nucleosome-remodeling factor subunit BPTF, residues 2862 to 2918; numbered along this chain, Q12830 (parent)
chain: TKKDTKLYCICKTPYDESKFYIGCDRCQNWYHGRCVGILQSEAELIDEYVCPQCQST

In this data set the parent is B1. Nature of the data set: abundance fitness (aPCA) (normalised: wild type 0, dead -1); higher = more abundant; growth selection in yeast, the domain comes from the species named. Particulars: Homo sapiens.
Take TKKDTKLYCICKTPYDESKFYIGCDRDQNWYHGRCVGILQSEAELIDEYVCPQCQST [C27D]: the abundance fitness was -0.962 ± 0.25.

With TKKDTKLYCICKTPYDESKFYIGCDRAQNWYHGRCVGILQSEAELIDEYVCPQCQST [C27A], the abundance fitness is -1.05 ± 0.13.

Regarding TKKDTKLYCICKTPYDESKFYIGCDRIQNWYHGRCVGILQSEAELIDEYVCPQCQST [C27I], the abundance fitness was -1.15 ± 0.29.

For the variant TKKDTKLYCICKTPYDESKFYIGCDRPQNWYHGRCVGILQSEAELIDEYVCPQCQST [C27P], the abundance fitness is -1.08 ± 0.14.

With TKKDTKLYCICKTPYDESKFYIGCDRQQNWYHGRCVGILQSEAELIDEYVCPQCQST [C27Q], the abundance fitness was -0.956 ± 0.1.

Regarding TKKDTKLYCICKTPYDESKFYIGCDRNQNWYHGRCVGILQSEAELIDEYVCPQCQST [C27N], the abundance fitness was -0.674 ± 0.19.

Regarding TKKDTKLYCICKTPYDESKFYIGCDRRQNWYHGRCVGILQSEAELIDEYVCPQCQST [C27R], the abundance fitness is -0.915 ± 0.085.

TKKDTKLYCICKTPYDESKFYIGCDREQNWYHGRCVGILQSEAELIDEYVCPQCQST [C27E]: the abundance fitness is -0.785 ± 0.096.

TKKDTKLYCICKTPYDESKFYIGCDRKQNWYHGRCVGILQSEAELIDEYVCPQCQST [C27K]: the abundance fitness was -0.822 ± 0.09.

Turning to TKKDTKLYCICKTPYDESKFYIGCDRHQNWYHGRCVGILQSEAELIDEYVCPQCQST [C27H], the abundance fitness is -1.11 ± 0.29.

On to TKKDTKLYCICKTPYDESKFYIGCDRMQNWYHGRCVGILQSEAELIDEYVCPQCQST [C27M], for which the abundance fitness was -0.816 ± 0.1.

In the case of TKKDTKLYCICKTPYDESKFYIGCDRLQNWYHGRCVGILQSEAELIDEYVCPQCQST [C27L], the abundance fitness was -1.04 ± 0.11.

In the case of TKKDTKLYCICKTPYDESKFYIGCDRGQNWYHGRCVGILQSEAELIDEYVCPQCQST [C27G], the abundance fitness was -0.758 ± 0.089.

As for TKKDTKLYCICKTPYDESKFYIGCDRFQNWYHGRCVGILQSEAELIDEYVCPQCQST [C27F], the abundance fitness is -0.843 ± 0.2.

In the case of TKKDTKLYCICKTPYDESKFYIGCDQCQNWYHGRCVGILQSEAELIDEYVCPQCQST [R26Q], the abundance fitness was -0.203 ± 0.11.

TKKDTKLYCICKTPYDESKFYIGCDTCQNWYHGRCVGILQSEAELIDEYVCPQCQST [R26T]: the abundance fitness was determined as 0.067 ± 0.094.

On to TKKDTKLYCICKTPYDESKFYIGCDVCQNWYHGRCVGILQSEAELIDEYVCPQCQST [R26V], for which the abundance fitness was -0.18 ± 0.075.

As for TKKDTKLYCICKTPYDESKFYIGCDKCQNWYHGRCVGILQSEAELIDEYVCPQCQST [R26K], the abundance fitness is -0.17 ± 0.099.

As for TKKDTKLYCICKTPYDESKFYIGCDMCQNWYHGRCVGILQSEAELIDEYVCPQCQST [R26M], the abundance fitness was -0.193 ± 0.1.

Regarding TKKDTKLYCICKTPYDESKFYIGCDHCQNWYHGRCVGILQSEAELIDEYVCPQCQST [R26H], the abundance fitness was determined as 0.064 ± 0.1.

In the case of TKKDTKLYCICKTPYDESKFYIGCDGCQNWYHGRCVGILQSEAELIDEYVCPQCQST [R26G], the abundance fitness is 0.041 ± 0.077.

Turning to TKKDTKLYCICKTPYDESKFYIGCDSCQNWYHGRCVGILQSEAELIDEYVCPQCQST [R26S], the abundance fitness was 0.008 ± 0.077.

For TKKDTKLYCICKTPYDESKFYIGCDECQNWYHGRCVGILQSEAELIDEYVCPQCQST [R26E], the abundance fitness is -0.087 ± 0.11.

For TKKDTKLYCICKTPYDESKFYIGCDICQNWYHGRCVGILQSEAELIDEYVCPQCQST [R26I], the abundance fitness amounted to 0.043 ± 0.087.

TKKDTKLYCICKTPYDESKFYIGCDDCQNWYHGRCVGILQSEAELIDEYVCPQCQST [R26D]: the abundance fitness is -0.029 ± 0.095.

Turning to TKKDTKLYCICKTPYDESKFYIGCDWCQNWYHGRCVGILQSEAELIDEYVCPQCQST [R26W], the abundance fitness is -0.278 ± 0.14.

As for TKKDTKLYCICKTPYDESKFYIGCDLCQNWYHGRCVGILQSEAELIDEYVCPQCQST [R26L], the abundance fitness is -0.068 ± 0.065.

As for TKKDTKLYCICKTPYDESKFYIGCDPCQNWYHGRCVGILQSEAELIDEYVCPQCQST [R26P], the abundance fitness was -0.207 ± 0.1.

Consider TKKDTKLYCICKTPYDESKFYIGCDNCQNWYHGRCVGILQSEAELIDEYVCPQCQST [R26N], for which the abundance fitness is 0.075 ± 0.099.

Regarding TKKDTKLYCICKTPYDESKFYIGCDFCQNWYHGRCVGILQSEAELIDEYVCPQCQST [R26F], the abundance fitness is -0.279 ± 0.11.

Regarding TKKDTKLYCICKTPYDESKFYIGCDYCQNWYHGRCVGILQSEAELIDEYVCPQCQST [R26Y], the abundance fitness was -0.11 ± 0.094.

Regarding TKKDTKLYCICKTPYDESKFYIGCKRCQNWYHGRCVGILQSEAELIDEYVCPQCQST [D25K], the abundance fitness was found to be 0.154 ± 0.11.

Turning to TKKDTKLYCICKTPYDESKFYIGCQRCQNWYHGRCVGILQSEAELIDEYVCPQCQST [D25Q], the abundance fitness was determined as 0.099 ± 0.099.

In the case of TKKDTKLYCICKTPYDESKFYIGCERCQNWYHGRCVGILQSEAELIDEYVCPQCQST [D25E], the abundance fitness was determined as 0.058 ± 0.07.

Turning to TKKDTKLYCICKTPYDESKFYIGCWRCQNWYHGRCVGILQSEAELIDEYVCPQCQST [D25W], the abundance fitness was -0.176 ± 0.083.

For the variant TKKDTKLYCICKTPYDESKFYIGCLRCQNWYHGRCVGILQSEAELIDEYVCPQCQST [D25L], the abundance fitness is -0.021 ± 0.061.

In the case of TKKDTKLYCICKTPYDESKFYIGCTRCQNWYHGRCVGILQSEAELIDEYVCPQCQST [D25T], the abundance fitness is 0.056 ± 0.078.

Turning to TKKDTKLYCICKTPYDESKFYIGCRRCQNWYHGRCVGILQSEAELIDEYVCPQCQST [D25R], the abundance fitness was determined as 0.025 ± 0.067.

As for TKKDTKLYCICKTPYDESKFYIGCPRCQNWYHGRCVGILQSEAELIDEYVCPQCQST [D25P], the abundance fitness is -0.204 ± 0.081.

For TKKDTKLYCICKTPYDESKFYIGCFRCQNWYHGRCVGILQSEAELIDEYVCPQCQST [D25F], the abundance fitness is -0.168 ± 0.16.

Take TKKDTKLYCICKTPYDESKFYIGCARCQNWYHGRCVGILQSEAELIDEYVCPQCQST [D25A]: the abundance fitness was -0.011 ± 0.078.

Regarding TKKDTKLYCICKTPYDESKFYIGCNRCQNWYHGRCVGILQSEAELIDEYVCPQCQST [D25N], the abundance fitness came to 0 ± 0.1.

For the variant TKKDTKLYCICKTPYDESKFYIGCIRCQNWYHGRCVGILQSEAELIDEYVCPQCQST [D25I], the abundance fitness is -0.15 ± 0.16.

On to TKKDTKLYCICKTPYDESKFYIGCSRCQNWYHGRCVGILQSEAELIDEYVCPQCQST [D25S], for which the abundance fitness amounted to 0.054 ± 0.064.

For the variant TKKDTKLYCICKTPYDESKFYIGCHRCQNWYHGRCVGILQSEAELIDEYVCPQCQST [D25H], the abundance fitness is -0.061 ± 0.15.

As to TKKDTKLYCICKTPYDESKFYIGCGRCQNWYHGRCVGILQSEAELIDEYVCPQCQST [D25G], the abundance fitness is -0.041 ± 0.092.
